Data from patent US20250019435A1 (ALBERT EINSTEIN COLLEGE OF MEDICINE, published 2025).

Experiments:
[1] = target: T1, PVR expressed on transduced cells (PVR-YFP) (UniProt P15151 21-417); test: confocal imaging of conjugates of transduced primary NK cells with PVR-YFP/Raji cells
T1 construct: whole, on cells; On NIH 3T3 or Raji cells; also called PVR/3T3; PVR-YFP/3T3; not shown: YFP ('PVR-YFP ... fusion protein')
T1 sequence (looked up): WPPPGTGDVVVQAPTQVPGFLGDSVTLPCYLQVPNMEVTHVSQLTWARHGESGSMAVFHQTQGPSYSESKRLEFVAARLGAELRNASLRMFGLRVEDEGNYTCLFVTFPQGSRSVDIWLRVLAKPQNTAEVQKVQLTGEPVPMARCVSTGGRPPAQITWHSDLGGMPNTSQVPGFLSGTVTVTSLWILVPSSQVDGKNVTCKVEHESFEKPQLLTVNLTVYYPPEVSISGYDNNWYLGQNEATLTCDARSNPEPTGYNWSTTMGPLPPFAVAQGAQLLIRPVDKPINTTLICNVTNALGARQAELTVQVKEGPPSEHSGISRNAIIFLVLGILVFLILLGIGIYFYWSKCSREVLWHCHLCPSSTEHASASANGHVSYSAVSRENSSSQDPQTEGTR
Protocol: (§1) The KIR2DL5⁻ primary NK cells were transduced with WT KIR2DL5 or the indicated mutants, and then examined for protein expression with F8B30 (open) or mIgG1 (shaded). NC, negative control. Data are representative of 2 independent experiments. (B and C) Transduced primary NK cells were treated with (+) or without (−) pervanadate (VO₄) for 5 minutes. Cell lysates were immunoprecipitated with anti-KIR2DL5 antibodies. Phospho-tyrosine (4G10), SHP-1, SHP-2, and total KIR2DL5 were detected by immunoblots (B). Quantification of p-Tyr, SHP-1, and SHP-2 association with WT or mutant KIR2DL5 in VO₄-treated NK cells (C). WCL, whole-cell lysates. (D) Representative imaging of cell conjugates acquired upon the indicated transduced primary NK and PVR/Raji cell contact followed by staining with anti-KIR2DL5 mAb and DAPI. Scale bars: […]. (E) Lysis of scramble control or PVR^KO A427 (top) and Jurkat (bottom) by WT or mutant KIR2DL5-transduced primary NK cells at the indicated E/T ratios. Data are mean for duplicate measurements and representative of 3 independent experiments with 3 different donors. In A, and B, data are representative of 3 independent experiments. *P<0.05, **P<0.01, ***P<0.001, ****P<0.0001, by 1-way ANOVA (C), or paired Student's t test (D).
NK-Raji conjugation assay. […] Cell mixtures were then loaded onto poly-L-lysine-precoated slides and fixed with 4% formaldehyde at RT for 15 minutes. After blocking with 5% normal goat serum at RT for 1 hour, cells were stained with 20 µg/mL anti-KIR2DL5 antibodies (a mixture of 8 homemade clones) at 4° C. overnight and then with goat anti-mIgG (H+L) Alexa Flour 647 (Invitrogen) at RT for 2 hours. The cells were permeabilized by 0.1% Triton X-100 at RT for 15 minutes and stained with Alexa Flour Plus 405 Phalloidin (Life Technologies) for 1 hour at RT. The slides were then mounted by Gold Antifade Mountant without DAPI (Life Technologies). The mean pixel intensity of synapse and non-synapse was respectively measured and statistically analyzed. Images were acquired by Leica SP8 confocal microscope and processed by ImageJ (NIH).

SHP-2 = target: T2, SHP-2 (human, UniProt Q06124 2-593); test: co-immunoprecipitation with anti-KIR2DL5 from transduced primary NK cells with or without pervanadate, immunoblot
T2 sequence (looked up): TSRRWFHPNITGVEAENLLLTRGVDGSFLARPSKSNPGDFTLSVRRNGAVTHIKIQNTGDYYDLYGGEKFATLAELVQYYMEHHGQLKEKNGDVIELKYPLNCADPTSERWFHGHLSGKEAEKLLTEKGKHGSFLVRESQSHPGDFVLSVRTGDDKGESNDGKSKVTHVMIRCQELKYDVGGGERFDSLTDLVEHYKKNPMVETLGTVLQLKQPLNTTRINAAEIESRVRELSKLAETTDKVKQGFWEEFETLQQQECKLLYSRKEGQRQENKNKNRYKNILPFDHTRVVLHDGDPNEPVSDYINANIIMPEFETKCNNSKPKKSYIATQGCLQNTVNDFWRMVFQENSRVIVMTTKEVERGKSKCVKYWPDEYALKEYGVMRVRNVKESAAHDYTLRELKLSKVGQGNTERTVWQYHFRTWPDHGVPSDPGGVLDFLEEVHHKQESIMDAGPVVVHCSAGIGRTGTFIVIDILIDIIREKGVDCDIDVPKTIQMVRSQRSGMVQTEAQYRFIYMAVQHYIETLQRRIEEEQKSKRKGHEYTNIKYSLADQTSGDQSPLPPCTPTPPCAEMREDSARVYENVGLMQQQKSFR
Protocol: as §1, with “FIG. 12A-12E: KIR2DL5 ITIM and ITSM mediated NK cell inhibition and suppressed downstream signaling. (A) Tyrosine (Y) in ITIM and ITSM of KIR2DL5 was mutated to phenylalanine (F). The” for “The”
(§2) Coimmunoprecipitation and immunoblotting. NK92 cells or primary NK cells pretreated with or without 1 mM pervanadate (New England BioLabs) were lysed in Pierce immunoprecipitation lysis buffer supplemented with protease and phosphatase inhibitor cocktail (Thermo Fisher Scientific). Proteins from whole-cell lysis were further incubated with anti-KIR2DL5 antibodies and Dynabeads protein G (Thermo Fisher Scientific) for further immunoprecipitation. […]

SHP-1 = SHP-1 (human, UniProt P29350 1-595); test: as above
SHP-1, sequence (P29350 whole entry): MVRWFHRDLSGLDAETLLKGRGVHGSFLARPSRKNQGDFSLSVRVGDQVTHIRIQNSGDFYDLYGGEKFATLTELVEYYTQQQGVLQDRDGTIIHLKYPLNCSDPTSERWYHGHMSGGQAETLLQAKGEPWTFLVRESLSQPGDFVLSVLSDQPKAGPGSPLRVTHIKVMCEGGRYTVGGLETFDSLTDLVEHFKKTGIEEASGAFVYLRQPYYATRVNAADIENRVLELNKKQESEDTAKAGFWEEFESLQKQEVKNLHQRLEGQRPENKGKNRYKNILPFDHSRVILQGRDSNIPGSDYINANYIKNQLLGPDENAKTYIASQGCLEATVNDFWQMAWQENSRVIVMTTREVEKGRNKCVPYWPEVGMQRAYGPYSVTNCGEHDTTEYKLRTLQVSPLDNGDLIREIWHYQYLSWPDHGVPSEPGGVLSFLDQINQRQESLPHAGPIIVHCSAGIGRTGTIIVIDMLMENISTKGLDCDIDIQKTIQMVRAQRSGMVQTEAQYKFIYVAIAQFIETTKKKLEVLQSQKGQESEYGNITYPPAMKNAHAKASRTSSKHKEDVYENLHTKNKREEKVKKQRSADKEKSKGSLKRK
Protocol: as §1, with “FIG. 12A-12E: KIR2DL5 ITIM and ITSM mediated NK cell inhibition and suppressed downstream signaling. (A) Tyrosine (Y) in ITIM and ITSM of KIR2DL5 was mutated to phenylalanine (F). The” for “The”
as §2

[2] = target: T1, PVR expressed on transduced cells …; test: flow cytometry, PVR/3T3 cells preincubated with DNAM-1-His, then KIR2DL5-Ig

B1: Y298F/Y328F (receptor)
receptor chain: HEGGQDKPLLSAWPSAVVPRGGHVTLLCRSRLGFTIFSLYKEDGVPVPELYNKIFWKSILMGPVTPAHAGTYRCRGSHPRSPIEWSAPSNPLVIVVTGLFGKPSLSAQPGPTVRTGENVTLSCSSRSSFDMYHLSREGRAHEPRLPAVPSVNGTFQADFPLGPATHGGTYTCFGSLHDSPYEWSDPSDPLLVSVTGNSSSSSSSPTEPSSKTGIRRHLHILIGTSVAIILFIILFFFLLHCCCSNKKNAAVMDQEPAGDRTVNREDSDDQDPQEVTFAQLDHCVFTQTKITSPSQRPKTPPTDTTMFMELPNAKPRSLSPAHKHHSQALRGSSRETTALSQNRVASSHVPAAGI
notes: also called KIR2DL5 Y298F/Y328F (ITIM and ITSM mutant) on transduced primary NK cells
[1]
  binding result: binds
SHP-2
  binding result: no binding
SHP-1
  binding result: no binding

B2: recombinant human DNAM-1-His tag protein (receptor, UniProt Q15762 19-247, looked up)
chain: EEVLWHTSVPFAENMSLECVYPSMGILTQVEWFKIGTQQDSIAIFSPTHGMVIRKPYAERVYFLNSTMASNNMTLFFRNASEDDVGYYSCSLYTYPQGTWQKVIQVVQSDSFEAAVPSNSHIVSEPGKNVTLTCQPQMTWPVQAVRWEKIQPRQIDLLTYCNLVHGRNFTSKFPRQIVSNCSHGRWSVIVIPDVTVSDSGLYRCYLQASAGENETFVMRLTVAEGKTDN
notes: Bought; also called CD226-His; not shown: His tag
[2]
  binding result: binds
